# Target: T1, SARS-CoV-2 spike receptor-binding domain (RBD), original Wuhan isolate (SARS-CoV-2, Wuhan isolate, UniProt P0DTC2)
# T1 construct: not shown: His tag, C-terminal, kept
# Experiment: BLI
# Details: both partners purified
binder,measurement,value
"G32Q4 Fab (Fab, V domains shown) VH: QVQLVESGGGVVQPGRSLRLSCAASGFTFSRYAMQWVRQAPGKGLEWVAVISYDGNNRYYADSVKGRFTISRDNSKNTLYLQMNSLRAEDTAVYYCARGPPGYYDSSGYYQTPEYFQHWGQGTLVTVSS VL: QSVLTQPPSVSGAPGQRVTISCTGSSSNIGVGYDVHWYQQFPGTVPKLLIYGNSNRPSGVPDRFSGSKSGTSASLAITGLQAEDEADYYCQSYDSSLSGVVFGGGTKLTVL",koff,0.0066 s⁻¹
same,kon,1.2e+06 M⁻¹ s⁻¹

# Reference: paper PMC9097876 (Science Immunology, 2022)
